± gives the uncertainty stated by the source.
Assay: amyloid nucleation score (Sup35N fusion, yeast selection) (log enrichment); library NNK3; higher = more nucleation; inactive = no reads after selection
Outline: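 The nucleation score is a DiMSum log enrichment of output over input reads, centred on the mode score of non-aggregating sequences. Sequences under 100 input reads were excluded, and reads came from Illumina sequencing of plasmid inserts. Psi-negative yeast expressing Sup35N fused to peptides of 20 random codons were induced with 100 μM copper sulfate for 24 hours and grown 7 days at 30°C on medium lacking adenine and uracil. Random libraries had three technical output replicates.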
With FTVYCF the amyloid nucleation score was “inactive”. For RVPACAYACLAYGGYDDMAG, the amyloid nucleation score was “inactive”. In the case of HCLSHTLQHNHTMISANSRS, the amyloid nucleation score is reported as “inactive”. For FTNFCS, the amyloid nucleation score was “inactive”. For TMRNKMAY, the amyloid nucleation score was “inactive”. With MGEPGVDAFNRLTPKWCLIP the amyloid nucleation score was “inactive”. In the case of NSNDRK, the amyloid nucleation score is reported as “inactive”. In the case of IDSAEASCIGCLVRQCADPI, the amyloid nucleation score is reported as “inactive”. In the case of TSVRELNLMPCDENSTICDI, the amyloid nucleation score is reported as “inactive”. In the case of AFRTFSFLGITS, the amyloid nucleation score is reported as “inactive”. For NIWLP, the amyloid nucleation score was “inactive”. For FRRLHQGLWKMYS, the amyloid nucleation score was “inactive”. Substance CVYNRLNMF has an amyloid nucleation score of -0.296 ± 0.28. In the case of FLFVCLSLIALTGADSLVQA, the amyloid nucleation score is reported as “inactive”. For GVLEAFLTDIIPMYGYVRVA, the amyloid nucleation score was “inactive”. With YFLQTEAEVSFEQEVVAISL the amyloid nucleation score was “inactive”. Substance LNTKEYLLYKRICTSNANLL has an amyloid nucleation score of -0.621 ± 1.1. For KIWNCVYVGWNIVVNNIKGL, the amyloid nucleation score was 2.66 ± 0.076. With TLEFHPRAINYDHRMNMFSR the amyloid nucleation score was “inactive”. With LYFNWWTRGTAMLYGI the amyloid nucleation score was “inactive”. In the case of IALSGRYRDSAACRDSCHVA, the amyloid nucleation score is reported as “inactive”. TQLIIAGFVPNYVVLPWSAH gave an amyloid nucleation score of 1.38 ± 0.11. In the case of IRVLVCIFWKTCPPNYVCRI, the amyloid nucleation score is reported as “inactive”. For LIRVGKDRVVSMEEVRCLLR, the amyloid nucleation score was “inactive”. In the case of GLQVYMIQRIETGM, the amyloid nucleation score is reported as “inactive”. For KFCVVSKTLFNFLTFWFEHG, the amyloid nucleation score was “inactive”. With SLKSNTVCDNL the amyloid nucleation score was “inactive”. In the case of VYCEPNMP, the amyloid nucleation score is reported as -0.163 ± 1.1. For SSDMFFRYESPVH, the amyloid nucleation score was “inactive”. With YYIYIYMCRLLVYIGFHFYW the amyloid nucleation score was “inactive”. In the case of FGINDCVIRV, the amyloid nucleation score is reported as “inactive”. QALTFIMWETDTSHGTCLNG showed an amyloid nucleation score of 1.46 ± 0.07. With LGYPCFSKWFVYSRSIGLEG the amyloid nucleation score was “inactive”. Substance TDGRITS has an amyloid nucleation score of 0.492 ± 0.35. Work on VVMSWYLVVTI yielded an amyloid nucleation score of 0.883 ± 0.26. With VFSDGLFVMTAAVYQYT the amyloid nucleation score was “inactive”. In the case of ARLSEAVLGNVSDIGRVCNL, the amyloid nucleation score is reported as “inactive”. In the case of DTYIGNINESMH, the amyloid nucleation score is reported as “inactive”. With RMDLEIVLNILHSGMS the amyloid nucleation score was “inactive”. For RMVPKMSVCS, the amyloid nucleation score was “inactive”. FTFWWDRLQNWKHIGFFGKV showed an amyloid nucleation score of 1.06 ± 0.12. In the case of ISRGALYLGMTATMRVQSGF, the amyloid nucleation score is reported as “inactive”. For ASGVATSFGFRLWSCVEDIE, the amyloid nucleation score was “inactive”. With CSLCYETGSICVVSRGEDGL the amyloid nucleation score was “inactive”. For SVVYRKDSIKQRKEFSSHAF, the amyloid nucleation score was “inactive”. In the case of YRFRRDNLWCTWSSYMYMYC, the amyloid nucleation score is reported as “inactive”. With EYTLPRPCRLLIFSDQYSNA the amyloid nucleation score was “inactive”. For WSRHSTMGTRPEKQVLWPAG, the amyloid nucleation score was “inactive”. For YSCAKRTRVGTRSSRKVSLA, the amyloid nucleation score was “inactive”. In the case of DTSTSMFRRVMEATVSTSLL, the amyloid nucleation score is reported as “inactive”. In the case of LARFMANLTGNC, the amyloid nucleation score is reported as “inactive”. For ALLFHLG, the amyloid nucleation score was “inactive”. In the case of EICKSLKLCNIWNCRIMLRS, the amyloid nucleation score is reported as “inactive”. With LAWVLMHSAKLGLKKRQAWG the amyloid nucleation score was “inactive”. With LSMVRLNFTRIC the amyloid nucleation score was “inactive”. For NKSLKLMYFSRDYFKDSRLN, the amyloid nucleation score was “inactive”. For RSSSPIRVHTINGDVYTDVV, the amyloid nucleation score was “inactive”. In the case of MGNAEEIAIHDSSAWVVVAR, the amyloid nucleation score is reported as “inactive”. With FILRVFMA the amyloid nucleation score was “inactive”. For CSDNILEHYTSFYWLMSVHR, the amyloid nucleation score was “inactive”. With SILMTVYDGYHKRSKNIAQC the amyloid nucleation score was “inactive”. In the case of RYGFADSYMLFLFRYTPSSG, the amyloid nucleation score is reported as “inactive”. For CTTRMCNGLWNARLRGTTSP, the amyloid nucleation score was “inactive”. For WWCLFWVSWN, the amyloid nucleation score was “inactive”. With GRHNKCMVDLVEDFQLASIW the amyloid nucleation score was “inactive”. For DGMTKFRWSCVRWVCG, the amyloid nucleation score was “inactive”. In the case of FNIYCVGPNYATRGAGWVLL, the amyloid nucleation score is reported as 1.78 ± 0.095. With IWLRVITLERLEPQM the amyloid nucleation score was “inactive”. For RKLNNTSTSHGICVGAWITN, the amyloid nucleation score was “inactive”. TFVDPGRV gave an amyloid nucleation score of -0.565 ± 1.1. In the case of YLICTRPILSLASLVS, the amyloid nucleation score is reported as “inactive”. For SMCKDFSAACESICGIPVGY, the amyloid nucleation score was “inactive”. In the case of NEMQQYSHAPSPSVVWNAGF, the amyloid nucleation score is reported as “inactive”. Work on KPTWQKEFVR yielded an amyloid nucleation score of 0.969 ± 0.19. For QKMFVQDLILVLPVISRLV, the amyloid nucleation score was “inactive”. For LECILADIASCIQPRAYCIS, the amyloid nucleation score was “inactive”. Work on RWSVSSQTMLSIINDISFFG yielded an amyloid nucleation score of 0.099 ± 0.2. With VNGTLGFIGRETLYGTTRLT the amyloid nucleation score was “inactive”. In the case of YSCVVL, the amyloid nucleation score is reported as “inactive”. For RHDCIYRKV, the amyloid nucleation score was “inactive”. In the case of IGRISMAIMWIGVGVA, the amyloid nucleation score is reported as “inactive”. In the case of NSCLRLSSHRMMFLAIAVTC, the amyloid nucleation score is reported as “inactive”. For STTDRTWNGYDDILYTYLYF, the amyloid nucleation score was “inactive”. For ACFLIYYLR, the amyloid nucleation score was “inactive”. For IYWLSTYRCIKSYSMST, the amyloid nucleation score was “inactive”. In the case of YSVFAVFILRHGSRILY, the amyloid nucleation score is reported as “inactive”. For QEGWCWSYLVAGGWV, the amyloid nucleation score was “inactive”. With SFAWVS the amyloid nucleation score was “inactive”. For NHESVVWDMNGHPSPVGRGE, the amyloid nucleation score was “inactive”. In the case of CAQARSRFTYQSAHR, the amyloid nucleation score is reported as “inactive”. With SCTVKSAGGFVSHRFNGSMG the amyloid nucleation score was “inactive”. Substance TLANQSHLISYYDSDHCRLL has an amyloid nucleation score of -0.38 ± 0.78. With EPTVC the amyloid nucleation score was “inactive”. Substance MQLIIIWATRK has an amyloid nucleation score of 1.43 ± 0.14. For LYFMCTNRQVL, the amyloid nucleation score was “inactive”. In the case of NSETRRIHSKVKLMLIVRLA, the amyloid nucleation score is reported as “inactive”. For TPCAKTIELHWCVVERRSSY, the amyloid nucleation score was “inactive”. With CCEFC the amyloid nucleation score was “inactive”. In the case of WWSYQGRLVGCGYMRTDNAP, the amyloid nucleation score is reported as “inactive”. With YLKVADVSLHLSHDLTYLLM the amyloid nucleation score was “inactive”. For SCVGNLENTIYNMVVRNCCY, the amyloid nucleation score was “inactive”. FDGKMVYFSAEFSFDKFLDR showed an amyloid nucleation score of 1.74 ± 0.11. In the case of AESEVDKCLDRGYGAEKTCT, the amyloid nucleation score is reported as “inactive”. For EWGTWSTY, the amyloid nucleation score was “inactive”. In the case of GDILGHRRHSVVRSRRQSLT, the amyloid nucleation score is reported as “inactive”. With EICGCCWKPVMWTGRCSCVY the amyloid nucleation score was “inactive”. With FTESVASYELAQVVSRSMLC the amyloid nucleation score was “inactive”. Substance HWSFQTVIDYGHPKFF has an amyloid nucleation score of 1.45 ± 0.15. With NLTYNTSYAVVDVLRITCNF the amyloid nucleation score was 2.56 ± 0.065. With AHGFLSVFV the amyloid nucleation score was 0.92 ± 0.12. With YDMTRHLYVSSPEIVKPY the amyloid nucleation score was “inactive”. For NNRLRGHF, the amyloid nucleation score was “inactive”. For VSSWNSSMMIYMVLCIRMSG, the amyloid nucleation score was “inactive”. In the case of TMVLIICDN, the amyloid nucleation score is reported as “inactive”. With GPLSHRN the amyloid nucleation score was “inactive”. For SAYAGYKRLGASEVILLSPY, the amyloid nucleation score was “inactive”. With SLSFSVLLHWIFCYFWILY the amyloid nucleation score was “inactive”. FCFLLKALTYHLS showed an amyloid nucleation score of -0.067 ± 0.75. In the case of QIVRLTSNIPRTAPSWSFH, the amyloid nucleation score is reported as “inactive”. STIDKCLYINIAIYAIFPDF gave an amyloid nucleation score of 1.31 ± 0.12. With QLLSLVKISNKLTVI the amyloid nucleation score was “inactive”. In the case of GYMDAGIDWF, the amyloid nucleation score is reported as “inactive”. For VEVMSGDEMWCLWLEFPSFE, the amyloid nucleation score was “inactive”. With SAGMNMLYMYECKSSSMGFC the amyloid nucleation score was “inactive”. For SLFINT, the amyloid nucleation score was “inactive”. CAIRDS showed an amyloid nucleation score of -0.647 ± 0.41. For TMVQECHYARSVSLYYNANA, the amyloid nucleation score was “inactive”. For RNIELSAPLFWSAAASDVVK, the amyloid nucleation score was “inactive”. For LSINLASSSGVSVLLKGSNL, the amyloid nucleation score was 0.87 ± 0.24. With PLSMSHVGAGLKF the amyloid nucleation score was “inactive”. In the case of PRYAVALSLD, the amyloid nucleation score is reported as “inactive”. For NDVPLDRQLVDGYIASARFG, the amyloid nucleation score was “inactive”. With MQYDASP the amyloid nucleation score was “inactive”. With DCFFRSVDLADSR the amyloid nucleation score was “inactive”. SICGKSSCMCVTNVSPLDSQ showed an amyloid nucleation score of 0.304 ± 0.21. For TNWDKNYYSCYIIKGLRWER, the amyloid nucleation score was “inactive”. Substance QMVIHTVLGLKSLCVMFPSR has an amyloid nucleation score of 1.04 ± 0.088. YNRFLVVSGMGMSFYGKQYM showed an amyloid nucleation score of 1.51 ± 0.074. For FIYIRYPHRRS, the amyloid nucleation score was “inactive”. In the case of RFYNDW, the amyloid nucleation score is reported as “inactive”. For SYRFYDDQSLCG, the amyloid nucleation score was “inactive”. For VTYYKSMYTREHFWTLGNSF, the amyloid nucleation score was 0.69 ± 0.21. With FYSNPNIVGFLMLLVYILEP the amyloid nucleation score was “inactive”. For SCRLWHKRANRVGF, the amyloid nucleation score was “inactive”. With KQGVILTNRVYAFALGSSTH the amyloid nucleation score was “inactive”. In the case of KRVLEGRFITVSM, the amyloid nucleation score is reported as “inactive”. With WRDFLYLRHGFQYGIRPMSE the amyloid nucleation score was “inactive”. With LFHNCHGFFHTNNVPFVRWP the amyloid nucleation score was “inactive”. For TLGLRADRYKLLYFFEGFLI, the amyloid nucleation score was “inactive”. For IHIFTLKYKVRARKLATTIS, the amyloid nucleation score was “inactive”. In the case of MLSLSLYKLFLRWKRTSSHD, the amyloid nucleation score is reported as 0.904 ± 0.16. For ASLRDAPILYDASE, the amyloid nucleation score was “inactive”. For KEVTSLVLIVFT, the amyloid nucleation score was 0.58 ± 0.17. In the case of KLLSMGVSTKRRT, the amyloid nucleation score is reported as “inactive”. In the case of HMGNKRLCYCSSR, the amyloid nucleation score is reported as -0.326 ± 0.87. For TMWTTGTTPPRMISHT, the amyloid nucleation score was “inactive”. In the case of YVFFLSLNIKPMLYTTLVGV, the amyloid nucleation score is reported as -0.138 ± 0.51. Substance FSIPPFTRTCLKNGLHYSVR has an amyloid nucleation score of -0.759 ± 0.88. In the case of VRIWLNVYGVVSLGGRRLLV, the amyloid nucleation score is reported as “inactive”. With MSSSIILWNFCNMDRCSLLV the amyloid nucleation score was -0.084 ± 0.49. In the case of NKFFDI, the amyloid nucleation score is reported as “inactive”.
